# Data: IntAct's records for PubMed 31036956
# B1: Proto-oncogene Wnt-3 (Homo sapiens), P56703 (parent)
# chain: MEPHLLGLLLGLLLGGTRVLAGYPIWWSLALGQQYTSLGSQPLLCGSIPGLVPKQLRFCRNYIEIMPSVAEGVKLGIQECQHQFRGRRWNCTTIDDSLAIFGPVLDKATRESAFVHAIASAGVAFAVTRSCAEGTSTICGCDSHHKGPPGEGWKWGGCSEDADFGVLVSREFADARENRPDARSAMNKHNNEAGRTTILDHMHLKCKCHGLSGSCEVKTCWWAQPDFRAIGDFLKDKYDSASEMVVEKHRESRGWVETLRAKYSLFKPPTERDLVYYENSPNFCEPNPETGSFGTRDRTCNVTSHGIDGCDLLCCGRGHNTRTEKRKEKCHCIFHWCCYVSCQECIRIYDVHTCK
# Variants of: B1
# Conditions: with lrp6_human LRP6, O75581
# Chain of lrp6_human LRP6, O75581 (O75581 whole entry): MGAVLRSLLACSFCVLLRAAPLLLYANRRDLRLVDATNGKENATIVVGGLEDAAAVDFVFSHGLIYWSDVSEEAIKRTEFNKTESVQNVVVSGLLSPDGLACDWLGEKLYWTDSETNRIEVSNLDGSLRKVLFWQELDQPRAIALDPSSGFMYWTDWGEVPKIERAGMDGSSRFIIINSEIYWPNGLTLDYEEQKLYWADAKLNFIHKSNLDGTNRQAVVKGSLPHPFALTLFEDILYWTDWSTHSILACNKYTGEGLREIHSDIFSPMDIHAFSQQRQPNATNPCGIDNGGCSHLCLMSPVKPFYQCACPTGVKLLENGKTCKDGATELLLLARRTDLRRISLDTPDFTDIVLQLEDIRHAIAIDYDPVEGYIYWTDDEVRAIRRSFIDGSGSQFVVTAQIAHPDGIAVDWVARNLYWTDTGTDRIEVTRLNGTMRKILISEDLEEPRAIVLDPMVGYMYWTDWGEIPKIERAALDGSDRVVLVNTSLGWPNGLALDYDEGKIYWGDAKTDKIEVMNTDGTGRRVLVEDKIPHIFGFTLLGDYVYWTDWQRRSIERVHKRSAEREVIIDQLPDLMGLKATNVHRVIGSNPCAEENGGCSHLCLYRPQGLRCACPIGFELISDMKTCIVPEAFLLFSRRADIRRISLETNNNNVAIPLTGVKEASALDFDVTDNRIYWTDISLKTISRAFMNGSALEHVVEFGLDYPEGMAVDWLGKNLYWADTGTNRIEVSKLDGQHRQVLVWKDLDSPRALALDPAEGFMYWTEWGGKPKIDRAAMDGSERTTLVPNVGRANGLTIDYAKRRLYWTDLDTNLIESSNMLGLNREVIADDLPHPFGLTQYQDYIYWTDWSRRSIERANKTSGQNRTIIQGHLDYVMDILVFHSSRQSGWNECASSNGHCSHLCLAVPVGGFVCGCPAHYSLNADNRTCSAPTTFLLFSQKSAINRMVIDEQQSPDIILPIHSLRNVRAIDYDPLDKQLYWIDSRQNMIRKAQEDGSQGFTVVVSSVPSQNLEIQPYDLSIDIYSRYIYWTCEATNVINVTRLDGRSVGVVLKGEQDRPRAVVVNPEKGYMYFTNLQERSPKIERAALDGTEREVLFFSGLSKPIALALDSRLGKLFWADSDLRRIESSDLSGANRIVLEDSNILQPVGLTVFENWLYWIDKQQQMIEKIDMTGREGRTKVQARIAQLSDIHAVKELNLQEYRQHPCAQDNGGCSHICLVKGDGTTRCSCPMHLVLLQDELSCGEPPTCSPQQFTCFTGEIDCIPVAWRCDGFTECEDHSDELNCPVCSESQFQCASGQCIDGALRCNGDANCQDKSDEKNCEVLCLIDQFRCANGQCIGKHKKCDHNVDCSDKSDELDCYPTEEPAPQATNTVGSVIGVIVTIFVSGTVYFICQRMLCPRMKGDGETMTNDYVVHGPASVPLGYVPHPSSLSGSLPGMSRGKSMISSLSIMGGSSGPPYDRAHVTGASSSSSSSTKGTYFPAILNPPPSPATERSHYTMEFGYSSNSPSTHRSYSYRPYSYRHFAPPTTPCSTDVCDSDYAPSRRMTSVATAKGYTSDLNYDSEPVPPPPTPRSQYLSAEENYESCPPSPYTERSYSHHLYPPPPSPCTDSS
row,Variant,effect of a mutation on the interaction
1,R253E,disrupting interaction
